Source: PMC5581337

Target: HA-NRX2αS1(+) S2(+) S3(+) S4(−) (extracellularly HA-tagged neurexin2α without the insert at splice site 4) (mouse) (UniProt E9Q7X7)
Experiment: cell surface binding assay; Scatchard plot analysis of IgSF21-Fc bound to COS-7 cells expressing HA-NRX2αS4(-), n = 30 cells

IgSF21-Fc (ectodomain of rat IgSF21 fused to the human immunoglobulin Fc region) (from UniProt M0RAS4 25-448) (Fc fusion)
Kd: 0.021 µM
